Experimental data published in article PMC11555231, “A cyclic peptide toolkit reveals mechanistic principles of peptidylarginine deiminase IV regulation” (Nature Communications, 2024).

B1: PADI4_3_R2Cit (peptide)
chain: YRDHHYRHPKYCG
modifications: citrulline at position 2; else as PADI4_3: D-tyrosine at position 1; thioether cyclisation between the N-terminus and the cysteine side chain; C-terminal amide
B2: PADI4_4 (peptide)
peptide: YHRLIVVIYVCG
modifications: not fully specified; D-tyrosine at position 1; cyclised via a thioether bond between the N-terminus (chloroacetylated) and the cysteine side chain (Cys11, from the letters); C-terminal amide
notes: cyclic peptide from RaPID selection 1 (10 mM CaCl2); source: synthetic peptide (Fmoc solid-phase synthesis, HPLC purified)
B3: PADI4_9 (peptide)
peptide: YAQWYIWVLLCG
modifications: not fully specified; D-tyrosine at position 1; cyclised via a thioether bond between the N-terminus (chloroacetylated) and the cysteine side chain (Cys11, from the letters); C-terminal amide
notes: cyclic peptide from RaPID selection 2 (0 mM CaCl2); source: synthetic peptide (Fmoc solid-phase synthesis, HPLC purified)
B4: PADI4_6 (peptide)
peptide: YLVLTIRLVLCG
modifications: not fully specified; D-tyrosine at position 1; cyclised via a thioether bond between the N-terminus (chloroacetylated) and the cysteine side chain (Cys11, from the letters); C-terminal amide
notes: as for B2
B5: PADI4_5 (peptide)
peptide: YATPWLIVVLCG
modifications: not fully specified; D-tyrosine at position 1; cyclised via a thioether bond between the N-terminus (chloroacetylated) and the cysteine side chain (Cys11, from the letters); C-terminal amide
notes: as for B2
B6: PADI4_7 (peptide)
peptide: YYPKGSWGYKLFCG
modifications: not fully specified; D-tyrosine at position 1; cyclised via a thioether bond between the N-terminus (chloroacetylated) and the cysteine side chain (Cys13, from the letters); C-terminal amide
notes: cyclic peptide from RaPID selection 2 (0 mM CaCl2); also called PAD4_7; source: synthetic peptide (Fmoc solid-phase synthesis, HPLC purified)
B7: PADI4_8 (peptide)
peptide: YTLWTVLVVICCG
modifications: not fully specified; D-tyrosine at position 1; cyclised via a thioether bond between the N-terminus (chloroacetylated) and the cysteine side chain (the cysteine marked C(S-), Cys11 from the letters); C-terminal amide
notes: as for B3
B8: PADI4_2 (peptide)
peptide: YRDHRSPFDGYCG
modifications: not fully specified; D-tyrosine at position 1; cyclised via a thioether bond between the N-terminus (chloroacetylated) and the cysteine side chain (Cys12, from the letters); C-terminal amide

Experiments:
[1] = target: T1, N-terminally biotinylated recombinant human PADI4 (bio-His-PADI4) (human, UniProt Q9UM07 1-663, biotin on the N-terminal Avi-Tag (BirA)); assay: SPR; single cycle kinetics; biotinylated PADI4 (wild type or single-residue variant) captured on a Biotin CAPture chip, peptide or peptide analogue as analyte; 50 mM HEPES pH 7.5, 150 mM NaCl, 2 mM DTT, 0.05% Tween-20, 0.1% DMSO; 25 °C; CaCl2 concentration not told for these runs; conditions: both partners purified
T1 construct: human peptidylarginine deiminase IV (PADI4), residues 1-663; (vector p28BIOH-LIC, Addgene plasmid 62352); also called Bio-hPADI4 wt; PADI4_WT; source: E. coli BL21-DE3 co-expressing biotin ligase (BirA), purified (Ni-NTA, S200 SEC); not shown: Avi-Tag (biotinylated), N-terminal, kept; His6, N-terminal, kept

[2] = target: His-tagged recombinant human PADI4 (His-PADI4) (human, UniProt Q9UM07 1-663); assay: cell-based or functional assay
[3] = target: T2, bio-His-PADI4 with the active site covalently blocked by Cl-amidine (human, UniProt Q9UM07 1-663, biotin on the N-terminal Avi-Tag (BirA); active site covalently blocked with Cl-amidine (residue not stated)); assay: SPR; as a1 with 10 mM CaCl2 and the PADI4 active site blocked with Cl-amidine; Bio-His-PADI4 captured, peptide as analyte; 25 °C; 1:1 binding model; conditions: both partners purified
T2 construct: human peptidylarginine deiminase IV (PADI4), residues 1-663; Same protein as m1; also called 10 mM CaCl2 + Cl-amidine; source: E. coli BL21-DE3 co-expressing biotin ligase (BirA), purified (Ni-NTA, S200 SEC); treated with Cl-amidine; not shown: Avi-Tag (biotinylated), N-terminal, kept; His6, N-terminal, kept

[4] = target: T1, N-terminally biotinylated recombinant …; assay: SPR; as a1 but 0 mM CaCl2 (calcium-free running buffer); Bio-His-PADI4 captured, peptide as analyte; 25 °C; 1:1 binding model; conditions: both partners purified
[5] = target: T1, N-terminally biotinylated recombinant …; assay: SPR; single cycle kinetics, Biacore T200 or S200; Bio-His-PADI4 captured on a Biotin CAPture chip (~2000 RU), peptide as analyte; 50 mM HEPES pH 7.5, 150 mM NaCl, 2 mM DTT, 0.05% Tween-20, 0.1% DMSO, 10 mM CaCl2; 25 °C; 1:1 binding model; conditions: both partners purified

T1 sequence (Q9UM07 whole entry, the tested form may be a part): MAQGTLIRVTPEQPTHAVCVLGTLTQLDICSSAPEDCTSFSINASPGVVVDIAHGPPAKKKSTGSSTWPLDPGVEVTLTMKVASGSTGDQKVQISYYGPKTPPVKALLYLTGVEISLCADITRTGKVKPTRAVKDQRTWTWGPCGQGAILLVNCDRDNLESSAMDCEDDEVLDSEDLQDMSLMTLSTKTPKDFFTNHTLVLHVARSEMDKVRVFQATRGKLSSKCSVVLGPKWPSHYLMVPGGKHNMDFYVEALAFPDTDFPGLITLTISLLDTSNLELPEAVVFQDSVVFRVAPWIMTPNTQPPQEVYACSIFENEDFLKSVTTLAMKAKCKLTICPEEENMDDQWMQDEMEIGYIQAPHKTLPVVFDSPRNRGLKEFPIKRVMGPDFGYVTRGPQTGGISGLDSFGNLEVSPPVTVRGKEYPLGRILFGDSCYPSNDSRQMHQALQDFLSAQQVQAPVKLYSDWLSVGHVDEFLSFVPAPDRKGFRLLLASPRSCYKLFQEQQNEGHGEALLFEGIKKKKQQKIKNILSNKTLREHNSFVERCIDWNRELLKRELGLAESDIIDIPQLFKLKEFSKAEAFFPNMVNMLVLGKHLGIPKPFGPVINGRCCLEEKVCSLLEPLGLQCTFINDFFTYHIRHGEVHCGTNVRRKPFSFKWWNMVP
T2 sequence (Q9UM07 whole entry, the tested form may be a part): as above
Sequence of His-tagged recombinant human PADI4 (His-PADI4) (Q9UM07 whole entry): as the sequence (Q9UM07 whole entry, the tested form may be a part) above

Binder | Kd [1] [nM] | IC50 of inhibition of PADI4 activity (COLDER assay) [2] [nM] | Kd [3] [nM] | Kd [4] [nM] | Kd [5] [nM] | IC50 of inhibition of PADI4 activity (COLDER assay, substrate BAEE, 10 mM CaCl2, 50 nM PADI4) [2] [nM]
B1 | 20 | 1100 | – | – | – | –
B2 | – | – | > 2000 | > 2000 | > 2000 | –
B3 | – | – | > 2000 | > 2000 | > 2000 | –
B4 | – | – | > 2000 | > 2000 | > 2000 | –
B5 | – | – | > 2000 | > 2000 | > 2000 | –
B6 | – | – | 36 | 8 | 39 | –
B7 | – | – | > 2000 | > 2000 | > 2000 | –
B8 | – | – | – | – | – | 209
